Results on 41 sequences are retold here after the nanobody polyreactivity screen of Harvey et al. (2022).

This series can be described thus: yeast display, Sf9 membrane polyspecificity reagent, FACS + sequencing; frameworks hold sequencing errors. The essentials:
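Sorting gates, low and high (top ~1%), were placed on anti-HA fluorescence to track expression and on streptavidin fluorescence to track reagent binding. A clone's polyreactivity label is taken from the gate it came out of. The reagent was 10% biotinylated, detergent-solubilized Sf9 membrane, applied for 1 hour at 4 °C to galactose-induced yeast display cells.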
For the sequence “QVQLVESGGGLVQAAGSLRLSCAASGSPFSGYAMGWYRQPPGKQRELVAAISWRGVRTSYADSVKGRFTISRDNAKNRVYLQMNSLKPEDSAVYYCDAVRYITKEFYWGQGTQVTVSS”, the “polyreactivity (PSR sort gate)” value was “high polyreactivity”. For “QVQLVESGGGLVQAAGSLRLSCAASGSTFADNAMGWYRQAPGKEREMVAANSRRGGSTYYADSVKGRFTISLDNAKNTVYLQMNSLKPEDTAVYYCAKPSGLVVNQYRAGMEYWGQGTQVTVSS”, the “polyreactivity (PSR sort gate)” value was “high polyreactivity”. The result for “QVQLVESGGGLVQAAGSLRLSCASSGSIIFYYAMGWYRQAPGNEREFVAAITRSGVRTYYADSVKGRFTISRDNAKNTVYLQMNSLIPEDTAVYYCIAEAYPYWYRGASREYDYWGQGTQVTVSS” reads “low polyreactivity”. With “QVQLVESGGGLVQAEGSLRLSCAASGNTFERNTMGWYRQATGKERELVAAISWSGGRTYYADSVKGRFTISRDNAKNTVYLQLNSLKPEDTAVYYCAATNYYYGAGYYYWGQGTQVTVSS”, the “polyreactivity (PSR sort gate)” value is recorded as “high polyreactivity”.

As to “QVQLVESGGGLVQAGASLRISCAASGYTFYANAMGWYIQAPGKEREFVASITWSGGSTYYADSVKGRFTISRDNAKNTVYLQMNSLKPEDTAVYYCAAESWFKYDYWGQGTQVTLSS”, the “polyreactivity (PSR sort gate)” value is listed as “low polyreactivity”. The result for “QVQLVESGGGLVQAGASLRLICAASGSTFQGNAIGWNRQAPGKERELVAAISRSGGSTYADSVKGRFTISRDNAKNTVYLQLNSLKPEDTAVYYCAAYSGVGYLWFDYWGQGTQVTVSS” reads “low polyreactivity”; that for “QVQLVESGGGLVQAGASLRLSCAASGITFWGYAMGWYRQAPGKEREFVARINWSGGRTYYAESVKGRFTISRDNAKNTVYLEMNSLKPEDTAVYDCAATSLIYGYRTYDYWGQGTQVTVSS”, “high polyreactivity”; that for “QVQLVESGGGLVQAGASLRLSCAASGLTFEYYTMGWYRQAPGKERELVAAITSSGGSTYYADSVKGRFTISRDNAKNTVYLQMNSLKPEDTAVYYCNAYWTYEFPSYDYWGQGTQVTVSS”, “low polyreactivity”. The result for “QVQLVESGGGLVQAGASLRLSCAASGRIYIYAMGWYRQAPGKEREMVAAITGGASTNYADSVKGRFTISRDNAKNTVYLQLISLKPEDTAVYYCNAVAYVYGSFRRRPMGYWGQGTQVTVSS” reads “high polyreactivity”; that for “QVQLVESGGGLVQAGASLRLSCAASGRTFAYYAMGWYRQAPGKERELVATITSSVGRTYYADSVKGRFTISRDNAKNTVYLQINSLKPEDTAVYYCNASDWGRTRGGGYPWLYRYDYWGQGTQVTVSS”, “low polyreactivity”; that for “QVQLVESGGGLVQAGASLRLSCAASGRTFHYYVKGWYRQAPGKERELVAAISRSGGRTYYADSVKGRFTISRDNAKNTVYLQMNSLNPEDTAVYFCAARSGYYYSEGAWRRDYWGQGTQVTLSS”, “high polyreactivity”. As for “QVQLVESGGGLVQAGASLRLSCAASGRTLTGYAMGWYRQAPGKERELVAAITWRDSTYYADSVKGRFTISRDNAKNTVYLQMNSLKPEDTAVYYCNADNATYFVYEFNYWGQGTQVTVSS”, the “polyreactivity (PSR sort gate)” value is given as “low polyreactivity”. The result for “QVQLVESGGGLVQAGASLRLSCAASGSIFIWYAMGWYRQAPGKERELVAAITSSGSTNYADSVKGRFTISRDNAKNPVYLQMNSLKPEDTAVYYCAAEYTYYTYNLNYWGQGTQVTVSS” reads “low polyreactivity”; that for “QVQLVESGGGLVQAGASLRLSCAASGSIFVLYGMGWYRQAPGKERELVAAISAGITNYADSVKGRFTISRDNAKNTVYLQMNSLKPEDTAVYYCATVDGAYQYTYDFWGQGTQVTVSS”, “low polyreactivity”. The result for “QVQLVESGGGLVQAGASLRLSCAASGSIFYDNAMGWYRQAPGKERELVASIRWSGDSTYYADSVKGRITISRDNAKNTVYLQMNSLKPEDTAVYYCAADPVEPYFTAIAYDYWGQGTQVTVSS” reads “low polyreactivity”; that for “QVQLVESGGGLVQAGASLRLSCAASGSTFLLNAMGWYRQAPGKERELVAAITSSGGTNYADSVKGRFTISRDNAKNTVYLQMNSLKPEDTAVYYCNTRYSPGYQGSEVDYWGQGTQVTVSS”, “low polyreactivity”; that for “QVQLVESGGGLVQAGASLRLSCAASGSTFYFYTMGWYRQAPWKERELVAAITRDGSTYYADSVKGRFTISRDNAKNTVYLQMNSLKPEDTAVYYCNALRWAYKFSAYYYWGQGTQVSVSS”, “low polyreactivity”. With “QVQLVESGGGLVQAGASLRLSCAASGSTYVRNAMGWYRQAPGKERELVAAITSGGNTYADSVKGRFTISRDNAKNTVYLQMNSLKPEDTAVYYSAAANEFGDVWAQFDYWGQGTQVTVSS” the entry was “low polyreactivity”. In the case of “QVQLVESGGGLVQAGASLRLSCAASVSIFDTNAMGWYRQAPGKERELVASISSGGGSTYYADSVKGRFTISRDNAKNTVYLQMNSLKPEDTAVYFCARRIGHGSRPYWLETWRYAYDYWGQGSQVTVSS”, the “polyreactivity (PSR sort gate)” value is “low polyreactivity”. With “QVQLVESGGGLVQAGATIRLSCAASVRTFESNALGWYRQEPGKERELVAGITSGGITNYADSVKGRFTISRDNAKNNVYLQMNSLKPEDTAVYYCEFYYWGQGTQVTVSS” the entry was “low polyreactivity”; with “QVQLVESGGGLVQAGCRLRLSCAAAAYIYRYAMGWYIQAPGKEREFVAAITWNGGSTYYADSVNGRFTISRDNAKITVYLQMNSLKPEDTGVYYCADDWSYYRRHFDYWGHGTQVTVSS”, “high polyreactivity”. The result for “QVQLVESGGGLVQAGCSLGLSCAASGRIVDYKAMGWYRQAPGKEWELVATLTSSSVRTHYPDSLKGRFSISRDNAKNTVYLQMNSLNPEDTSVYYWNAAYGPRYPRRYDYWGQGTQVTVSS” reads “low polyreactivity”.

Take “QVQLVESGGGLVQAGCSLRGSCAAYRSTFIRYAMGWSRPAPGKERELVAAITWRGGSTYYADSVKGRFTISRDNEKNTVYLQMKSLKPDDSAVSFCAARDRDTRNYYWVQGTQVTVSS”: the “polyreactivity (PSR sort gate)” value is recorded as “high polyreactivity”. With “QVQLVESGGGLVQAGCSLRISCAASGITFGRKTMGWSRQAPGKERELVAAIDSGGNTYADSVKGRFTISRDNAKNTVYLQMNSLKPEDTAVYYCAVDGGEFSSYGYWGQGTQVTVSS” the entry was “low polyreactivity”; with “QVQLVESGGGLVQAGCSLRLICAAAGIIFSSYAMGWYRQAPGKERELVAAISWNGGRTYYADSVKGRFTISRDNAKNTVYLQMNSLKPEDTAVYYCAAPHSVPDLHSGDYWGQGTQVTVSS”, “low polyreactivity”; with “QVQLVESGGGLVQAGCSLRLICAASGLYAMGWYRQAPGKERELVADINSSGGSITNYADSVKGRFTISRDNAKNTVYLQMNSLKPEDTAVYDCAAPALGNYFYGYDYWGQGTQVTVSS”, “low polyreactivity”. The result for “QVQLVESGGGLVQAGCSLRLRCAASGFTFYSYAMGWYRQAPGKERELVANITIGGSTYADSVKGRFTISRDNAKNNVYLQMNSLNPEDTAVYYCARGYRVVGDPLYGEYDYWGQGSQVTVSS” reads “low polyreactivity”. For the sequence “QVQLVESGGGLVQAGCSLRLSCAASGFIFGPNAMGWYRQAPGKERELVAAISWIGSSTYYADSVKGRFTISRDNAKNTVYLQMNSLKPQDNAVYYCAADSSERRLMDFDYWGQGTQVTVSS”, the “polyreactivity (PSR sort gate)” value is “low polyreactivity”. The result for “QVQLVESGGGLVQAGCSLRLSCAASGFIFIRYAKGWYRQAPGQESELVASISSGGSTYYADSVKGRFTISRDNAKNTVYLQMNSLKPEDTAVYYCAAVFSKGLEGDYWGQGTQVTVSS” reads “high polyreactivity”; that for “QVQLVESGGGLVQAGCSLRLSCAASGFILNWYAMGCYRQAPGKERELVAAISWTTSDTYYADSVKGRFTISRDNAKHTVYLQMNSLKPEDQAVYYCATQGYISFPPPAYYEYNYWGQGTQETVSS”, “low polyreactivity”. For the sequence “QVQLVESGGGLVQAGCSLRLSCAASGFILSDNAMGWYRQAPGKERELVAAINSGGSTYYADSVKGRFTISRDNAKNTVYFQMNSLKPEDSAVYYCAADYSTWLRAYDYWGQGTQVTVSS”, the “polyreactivity (PSR sort gate)” value is given as “low polyreactivity”. With “QVQLVESGGGLVQAGCSLRLSCAASGFTFAKYAMGRYRQAPGKERELVAAITYRDGSTYYADSVKGRFTISRDYAKNTVYLQMNSLKPEDSAVYYCAAVASYVRYGYWGQGTQVTVSS” the entry was “high polyreactivity”; with “QVQLVESGGGLVQAGCSLRLSCAASGFTFFRNAMGWYRQAPGKERELVAAISGSGGSTYYADSVKGRFTISRDNAKNTVYLQMNSLKPEDTAVYYCATYSYPAKVREAYNYWGQGTQVTVSS”, “low polyreactivity”.

On to “QVQLVESGGGLVQAGCSLRLSCAASGFTFGDNAMGWYRQAPGKDRELDARITGDGSTYYADSVKGRFTISRDNAKNTVYLQTNSLKPEDTAVYYCAADYSPRYTQIEYGYWGQGTQVTVSS”, for which the “polyreactivity (PSR sort gate)” value is “low polyreactivity”. The result for “QVQLVESGGGLVQAGCSLRLSCAASGFTFRANGMGWYRQAPGKERELVATITSGGTTNYADSVKGRFTISRDNAKNTVYLQMNSLKPEDTAVYYCAKRFGPAYFRLYDYWGQGTQVTVSS” reads “low polyreactivity”; that for “QVQLVESGGGLVQAGCSLRLSCAASGFTFRYYAMGSYRQAPGKERELVSAISQSGGLTFYADSVKGRFTISRDNAKITVYLQMNSLKPVDTAVFYCAAGRRTYPSKYGSWGQGSQVTVSS”, “high polyreactivity”. Regarding “QVQLVESGGGLVQAGCSLRLSCAASGGTFRSNAMGWYRKAPGKERELVAASTNYADSVKGRFTISRDNAKNTVYLQMNSLKPEDTAVYYCAAGPTDSQTGMDYWGQGTQVTVSS”, the “polyreactivity (PSR sort gate)” value was “low polyreactivity”. The result for “QVQLVESGGGLVQAGCSLRLSCAASGGTFSLNAMGCYRQAPGKERELVAAITWTGDRTYYADSVKGRFTISRDNAKNTVYLQMNSLKPEDTAVYYCAAVGGYYPGDYWGQGTQVTVSS” reads “low polyreactivity”.

Turning to “QVQLVESGGGLVQAGCSLRLSCAASGITFELYAMGSYRQAPGKERELVAAISSNGGITFYADSVKGRFTISRDYAKNTVYLQMKSLKPEDTEVYYCAARYVRYPRYDYWGQGTQVTVSS”, the “polyreactivity (PSR sort gate)” value was “high polyreactivity”. With “QVQLVESGGGLVQAGCSLRLSCAASGITFTYYAMGWYRQAPGKERELVAAINTGGNTNYADSVKGRFTISRDYAKNSVYLQMNSLKPEDTAVYYCAAYWYYYWWYDYWGQGTQVSVSS” the entry was “high polyreactivity”.

Regarding “QVQLVESGGGLVQAGCSLRLSCAASGITFVYYAMGRYRQAAGKERELVAAITTGGSTNYADSVKGRFTISRDNAKYTVYLQMNSLKPEDTAVYYCNKRPVILYDYWGQGTQVTVSS”, the “polyreactivity (PSR sort gate)” value is on record as “low polyreactivity”.
